The source of these data is patent US20140335510, “NANOPARTICLE SENSOR FOR NUCLEIC ACID-PROTEIN INTERACTION” (Agency for Science, Technology and Research, published 2014).

The target in the data set is T1, FoxA1 (full-length) (UniProt P55317 P55317:1-472).
T1 sequence: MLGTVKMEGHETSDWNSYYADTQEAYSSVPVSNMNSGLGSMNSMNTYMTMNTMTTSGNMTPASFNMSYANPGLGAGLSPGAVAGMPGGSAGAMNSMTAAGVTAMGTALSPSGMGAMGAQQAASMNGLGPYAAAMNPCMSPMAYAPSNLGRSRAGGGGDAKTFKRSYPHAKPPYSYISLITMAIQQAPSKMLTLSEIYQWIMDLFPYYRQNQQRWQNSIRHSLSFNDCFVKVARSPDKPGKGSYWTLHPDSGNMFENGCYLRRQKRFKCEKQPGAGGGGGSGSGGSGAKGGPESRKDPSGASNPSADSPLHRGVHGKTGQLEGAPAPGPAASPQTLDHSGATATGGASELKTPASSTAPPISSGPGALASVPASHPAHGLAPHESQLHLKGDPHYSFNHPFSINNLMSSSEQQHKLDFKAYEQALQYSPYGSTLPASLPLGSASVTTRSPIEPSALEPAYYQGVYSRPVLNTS
Description: negative control; no fluorescence change of ACP-430 or CCP-410 on adding FoxA1. The conditions noted are these: tags: N-terminal His-MBP fusion, pHISMBP vector, E. coli BL21(DE3); label: 5'-thiol-AuNP on sense strand (sensor).

B1: mtR3 (dsDNA)
DNA 1: AAAGTATTCAGAATCCATG
DNA 2: CATGGATTCTGAATACTTT
With B1, the binding result is given as “no binding”.
